Target: T1, rat EphB1 (rat, UniProt P09759 18-538, limits assumed)
T1 sequence (looked up): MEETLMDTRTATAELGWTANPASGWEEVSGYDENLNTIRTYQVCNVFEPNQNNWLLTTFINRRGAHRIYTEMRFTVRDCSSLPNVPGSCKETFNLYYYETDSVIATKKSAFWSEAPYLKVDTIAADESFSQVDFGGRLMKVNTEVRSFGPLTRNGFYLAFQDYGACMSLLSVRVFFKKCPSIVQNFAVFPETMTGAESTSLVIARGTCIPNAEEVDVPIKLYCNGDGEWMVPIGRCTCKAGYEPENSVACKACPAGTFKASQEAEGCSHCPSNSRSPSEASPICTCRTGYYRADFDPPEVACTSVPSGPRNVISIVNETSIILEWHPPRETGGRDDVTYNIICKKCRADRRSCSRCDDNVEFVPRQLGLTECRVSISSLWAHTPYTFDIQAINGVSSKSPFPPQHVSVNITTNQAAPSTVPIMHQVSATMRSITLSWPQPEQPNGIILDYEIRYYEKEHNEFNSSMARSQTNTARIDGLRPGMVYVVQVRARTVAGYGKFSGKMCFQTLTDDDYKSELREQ
Assay: ELISA, well L15 [part 2]

binding result: no binding
B1: MOR03640 Fab (Fab, V domains shown)
VH: QVQLVESGGGLVQPGGSLRLSCAASGFTFNNSWMSWVRQAPGKGLEWVSNITSSSSMTHYADSVKGRFTISRDNSKNTLYLQMNSLRAEDTAVYYCARKGMSFYNNKYAKSMFDLWGQGTLVTVSS
VL: DIELTQPPSVSVAPGQTARISCSGDNLGKKYVHWYQQKPGQAPVLVIYYDSKRPSGIPERFSGSNSGNTATLTISGTQAEDEADYYCSAWTTTMMHIVFGGGTKLTVLG
notes: Monomeric HuCAL Fab, purified, MH-tagged

— patent publication US20090137002A1 (published 2009)
